Test results from patent US20230365705A1 (DYNAMICURE BIOTECHNOLOGY, published 2023).

T1: Human CD93 on cells (human CD93 expressing CHO cells; HUVEC, U937 and KG1a cells) (human, UniProt Q9NPY3 22-652)
T1 construct: whole, on cells; also called hCD93 expressing CHO cells; hCD93 CHO cells
T1 sequence (looked up): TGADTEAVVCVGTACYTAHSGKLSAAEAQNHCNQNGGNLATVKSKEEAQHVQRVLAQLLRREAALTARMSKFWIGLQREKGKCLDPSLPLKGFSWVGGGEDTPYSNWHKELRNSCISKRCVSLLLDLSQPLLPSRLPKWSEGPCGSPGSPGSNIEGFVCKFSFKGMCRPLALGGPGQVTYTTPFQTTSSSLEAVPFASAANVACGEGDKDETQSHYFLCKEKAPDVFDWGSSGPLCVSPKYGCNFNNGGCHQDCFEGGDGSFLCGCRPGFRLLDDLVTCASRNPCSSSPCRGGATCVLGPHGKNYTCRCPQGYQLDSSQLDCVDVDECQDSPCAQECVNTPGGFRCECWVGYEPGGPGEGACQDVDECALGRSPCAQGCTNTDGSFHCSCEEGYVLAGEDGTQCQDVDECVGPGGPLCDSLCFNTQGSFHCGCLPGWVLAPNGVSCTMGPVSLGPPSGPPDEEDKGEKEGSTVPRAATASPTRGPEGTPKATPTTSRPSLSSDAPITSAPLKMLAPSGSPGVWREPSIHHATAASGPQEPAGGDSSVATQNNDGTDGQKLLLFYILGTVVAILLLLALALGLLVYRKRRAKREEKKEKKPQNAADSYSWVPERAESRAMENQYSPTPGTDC


What was measured:
[1] = target: T1, Human CD93 on cells (human CD93 …); assay: flow cytometry blocking assay, CHO-hCD93 cells; blocked ligand hMMRN2 495-674 at 0.1 ug/ml; antibody stored 4 weeks at 40 C
Procedure: Then the cells were incubated with hMMRN2₄₉₅₋₆₇₄ at 0.1 μg/ml. […] After washing with FACS buffer twice, the samples were analyzed, and data acquired in NovoCyte Flow. Recombinant his tagged hMMRN2₄₉₅₋₆₇₄ was produced internally in E. Coli following routine procedure.

[2] = target: T1, Human CD93 on cells (human CD93 …); assay: summary table, column FACS (HUVEC cells); 2 weeks at 40 C
Procedure: (§1) HUVEC cells were detached by incubation with TrypLE reagents (Thermo Fisher), which preserves the integrity of CD93 on the cell surface. Then the cells were incubated with serial diluted anti-CD93 antibodies for 30 minutes at 4° C. After washing by FACS buffer, the cells were incubated with Alexa Fluor 647 conjugated anti-human IgG (Jackson ImmunoResearch) for 30 minutes in 4° C. After washing by FACS buffer twice, the samples were acquired in NovoCyte Flow Cytometer and analyzed by NovoExpress software.

[3] = target: T1, Human CD93 on cells (human CD93 …); assay: flow cytometry titration, HUVEC cells; antibody stored 4 weeks at 40 C; unit printed as nMM
Procedure: as §1

[4] = target: T1, Human CD93 on cells (human CD93 …); assay: flow cytometry titration, CHO-hCD93 cells; antibody stored 4 weeks at 40 C
Procedure: as §1, with “Human CD93 expressing CHO” for “HUVEC”

IC50 [1] [nM]	EC50 [2] [nM]	EC50 [3] [nM]	EC50 [4] [nM]	Binder
0.153	1.17	1.12	–	h7F3 (humanized 7F3, VH3+VL3) (antibody, human IgG1, V domains shown, also called humanized 7F3-hIgG1) VH: QVQLVQSGAEVKKPGASVKVSCKASGYTFTDYEMHWVRQAPGQGLEWMGGIDPETGDTAYNQNFKGRVTMTTDTSTSTAYMELRSLTSDDTAVYYCTNYGNLYYYAMDYWGQGTSVTVSS VL: EIVLTQSPSSLSASVGDRVTITCRASSSVSSSYLHWYQQKPGKAPKLLIYSTSNLAFGVPSRFSGSGSGTSYTFTISSLQPEDIATYYCQQYSGYPLTFGSGTKLEIK
–	–	–	0.312	h16E4 (humanized 16E4, VH4+VL6) (antibody, V domains shown, Detected with anti-human IgG, so a human Fc) VH: QVQLVQSGAEVKKPGASVKVSCKASGYTFTSYWMHWVRQAPGQGLEWMGEIDPSASYTYYNQKFKGRVTMTRDKSSSTVYMELSSLTSEDSAVYYCARSVYYGNKYFDVWGAGTTVTVSS VL: DIQMTQSPSTLSASVGDRVTITCKASQSVDYAGDSYMNWYQQKPGKAPKLLIYAASNLESGVPSRFSGSGSGTEFTLTISSLQPDDFATYYCQQTNEDPRTFGGGTKLEIK
